Experimental data reported in publication PMC12485048.

Molecular target: Ca2+/calmodulin-dependent protein kinase II (CaMKII) (mouse (endogenous in striatum)) (UniProt P28652)
Assay: co-IP; endogenous proteins in mouse striatum lysate (20 mM Tris-HCl pH 7.4, 50 mM NaCl, 0.5% NP-40, 10 mM HEPES, 0.5 mM EDTA); 2 μg primary antibody on Protein A/G or Protein G magnetic beads, lysate at 4 °C overnight; western blot; for CaMKII–PPP1CC, WT and Sh3rf2 KO striatum compared

Chain of UniProt P28652 (P28652 whole entry): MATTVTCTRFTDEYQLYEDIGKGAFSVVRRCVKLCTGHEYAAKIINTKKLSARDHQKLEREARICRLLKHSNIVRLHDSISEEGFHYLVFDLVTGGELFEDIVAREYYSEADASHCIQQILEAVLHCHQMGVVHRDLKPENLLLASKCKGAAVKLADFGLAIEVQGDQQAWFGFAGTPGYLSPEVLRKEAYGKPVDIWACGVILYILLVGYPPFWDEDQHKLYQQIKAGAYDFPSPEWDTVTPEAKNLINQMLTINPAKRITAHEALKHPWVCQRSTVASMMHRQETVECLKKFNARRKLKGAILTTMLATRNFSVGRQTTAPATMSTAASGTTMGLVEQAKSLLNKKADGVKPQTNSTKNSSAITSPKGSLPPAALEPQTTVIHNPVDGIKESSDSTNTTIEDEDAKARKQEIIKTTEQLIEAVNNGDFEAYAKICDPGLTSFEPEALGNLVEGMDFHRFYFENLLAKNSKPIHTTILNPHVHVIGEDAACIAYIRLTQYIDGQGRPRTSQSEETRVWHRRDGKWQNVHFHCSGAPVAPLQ

A reduction of CaMKII–PPP1CC co-precipitate in Sh3rf2 KO against WT striatum of 80% was found for “PP1 catalytic subunit gamma (PPP1CC) (from UniProt P63087 1-323) (enzyme)” in this work.
